According to publication PMC3328385 (The Journal of Cell Biology, 2012):

B1: Munc13-4 (wild type, His6-tagged human Munc13-4) (natural protein)
chain: MATLLSHPQQRPPFLRQAIKIRRRRVRDLQDPPPQMAPEIQPPSHHFSPEQRALLYEDALYTVLHRLGHPEPNHVTEASELLRYLQEAFHVEPEEHQQTLQRVRELEKPIFCLKATVKQAKGILGKDVSGFSDPYCLLGIEQGVGVPGGSPGSRHRQKAVVRHTIPEEETHRTQVITQTLNPVWDETFILEFEDITNASFHLDMWDLDTVESVRQKLGELTDLHGLRRIFKEARKDKGQDDFLGNVVLRLQDLRCREDQWYPLEPRTETYPDRGQCHLQFQLIHKRRATSASRSQPSYTVHLHLLQQLVSHEVTQHEAGSTSWDGSLSPQAATVLFLHATQKDLSDFHQSMAQWLAYSRLYQSLEFPSSCLLHPITSIEYQWIQGRLKAEQQEELAASFSSLLTYGLSLIRRFRSVFPLSVSDSPARLQSLLRVLVQMCKMKAFGELCPNTAPLPQLVTEALQTGTTEWFHLKQQHHQPMVQGIPEAGKALLGLVQDVIGDLHQCQRTWDKIFHNTLKIHLFSMAFRELQWLVAKRVQDHTTVVGDVVSPEMGESLFQLYISLKELCQLRMSSSERDGVLALDNFHRWFQPAIPSWLQKTYNEALARVQRAVQMDELVPLGELTKHSTSAVDLSTCFAQISHTARQLDWPDPEEAFMITVKFVEDTCRLALVYCSLIKARARELSSGQKDQGQAANMLCVVVNDMEQLRLVIGKLPAQLAWEALEQRVGAVLEQGQLQNTLHAQLQSALAGLGHEIRTGVRTLAEQLEVGIAKHIQKLVGVRESVLPEDAILPLMKFLEVELCYMNTNLVQENFSSLLTLLWTHTLTVLVEAAASQRSSSLASNRLKIALQNLEICFHAEGCGLPPKALHTATFQALQRDLELQAASSRELIRKYFCSRIQQQAETTSEELGAVTVKASYRASEQKLRVELLSASSLLPLDSNGSSDPFVQLTLEPRHEFPELAARETQKHKKDLHPLFDETFEFLVPAEPCRKAGACLLLTVLDYDTLGADDLEGEAFLPLREVPGLSGSEEPGEVPQTRLPLTYPAPNGDPILQLLEGRKGDREAQVFVRLRRHRAKQASQHALRPAP
B2: C2A* Munc13-4 (D127N/D133N) (natural protein)
chain: MATLLSHPQQRPPFLRQAIKIRRRRVRDLQDPPPQMAPEIQPPSHHFSPEQRALLYEDALYTVLHRLGHPEPNHVTEASELLRYLQEAFHVEPEEHQQTLQRVRELEKPIFCLKATVKQAKGILGKNVSGFSNPYCLLGIEQGVGVPGGSPGSRHRQKAVVRHTIPEEETHRTQVITQTLNPVWDETFILEFEDITNASFHLDMWDLDTVESVRQKLGELTDLHGLRRIFKEARKDKGQDDFLGNVVLRLQDLRCREDQWYPLEPRTETYPDRGQCHLQFQLIHKRRATSASRSQPSYTVHLHLLQQLVSHEVTQHEAGSTSWDGSLSPQAATVLFLHATQKDLSDFHQSMAQWLAYSRLYQSLEFPSSCLLHPITSIEYQWIQGRLKAEQQEELAASFSSLLTYGLSLIRRFRSVFPLSVSDSPARLQSLLRVLVQMCKMKAFGELCPNTAPLPQLVTEALQTGTTEWFHLKQQHHQPMVQGIPEAGKALLGLVQDVIGDLHQCQRTWDKIFHNTLKIHLFSMAFRELQWLVAKRVQDHTTVVGDVVSPEMGESLFQLYISLKELCQLRMSSSERDGVLALDNFHRWFQPAIPSWLQKTYNEALARVQRAVQMDELVPLGELTKHSTSAVDLSTCFAQISHTARQLDWPDPEEAFMITVKFVEDTCRLALVYCSLIKARARELSSGQKDQGQAANMLCVVVNDMEQLRLVIGKLPAQLAWEALEQRVGAVLEQGQLQNTLHAQLQSALAGLGHEIRTGVRTLAEQLEVGIAKHIQKLVGVRESVLPEDAILPLMKFLEVELCYMNTNLVQENFSSLLTLLWTHTLTVLVEAAASQRSSSLASNRLKIALQNLEICFHAEGCGLPPKALHTATFQALQRDLELQAASSRELIRKYFCSRIQQQAETTSEELGAVTVKASYRASEQKLRVELLSASSLLPLDSNGSSDPFVQLTLEPRHEFPELAARETQKHKKDLHPLFDETFEFLVPAEPCRKAGACLLLTVLDYDTLGADDLEGEAFLPLREVPGLSGSEEPGEVPQTRLPLTYPAPNGDPILQLLEGRKGDREAQVFVRLRRHRAKQASQHALRPAP
B3: C2B* Munc13-4 (D941N/D947N) (natural protein)
chain: MATLLSHPQQRPPFLRQAIKIRRRRVRDLQDPPPQMAPEIQPPSHHFSPEQRALLYEDALYTVLHRLGHPEPNHVTEASELLRYLQEAFHVEPEEHQQTLQRVRELEKPIFCLKATVKQAKGILGKDVSGFSDPYCLLGIEQGVGVPGGSPGSRHRQKAVVRHTIPEEETHRTQVITQTLNPVWDETFILEFEDITNASFHLDMWDLDTVESVRQKLGELTDLHGLRRIFKEARKDKGQDDFLGNVVLRLQDLRCREDQWYPLEPRTETYPDRGQCHLQFQLIHKRRATSASRSQPSYTVHLHLLQQLVSHEVTQHEAGSTSWDGSLSPQAATVLFLHATQKDLSDFHQSMAQWLAYSRLYQSLEFPSSCLLHPITSIEYQWIQGRLKAEQQEELAASFSSLLTYGLSLIRRFRSVFPLSVSDSPARLQSLLRVLVQMCKMKAFGELCPNTAPLPQLVTEALQTGTTEWFHLKQQHHQPMVQGIPEAGKALLGLVQDVIGDLHQCQRTWDKIFHNTLKIHLFSMAFRELQWLVAKRVQDHTTVVGDVVSPEMGESLFQLYISLKELCQLRMSSSERDGVLALDNFHRWFQPAIPSWLQKTYNEALARVQRAVQMDELVPLGELTKHSTSAVDLSTCFAQISHTARQLDWPDPEEAFMITVKFVEDTCRLALVYCSLIKARARELSSGQKDQGQAANMLCVVVNDMEQLRLVIGKLPAQLAWEALEQRVGAVLEQGQLQNTLHAQLQSALAGLGHEIRTGVRTLAEQLEVGIAKHIQKLVGVRESVLPEDAILPLMKFLEVELCYMNTNLVQENFSSLLTLLWTHTLTVLVEAAASQRSSSLASNRLKIALQNLEICFHAEGCGLPPKALHTATFQALQRDLELQAASSRELIRKYFCSRIQQQAETTSEELGAVTVKASYRASEQKLRVELLSASSLLPLNSNGSSNPFVQLTLEPRHEFPELAARETQKHKKDLHPLFDETFEFLVPAEPCRKAGACLLLTVLDYDTLGADDLEGEAFLPLREVPGLSGSEEPGEVPQTRLPLTYPAPNGDPILQLLEGRKGDREAQVFVRLRRHRAKQASQHALRPAP
B4: C2A*B* Munc13-4 (D127N/D133N/D941N/D947N) (natural protein)
chain: MATLLSHPQQRPPFLRQAIKIRRRRVRDLQDPPPQMAPEIQPPSHHFSPEQRALLYEDALYTVLHRLGHPEPNHVTEASELLRYLQEAFHVEPEEHQQTLQRVRELEKPIFCLKATVKQAKGILGKNVSGFSNPYCLLGIEQGVGVPGGSPGSRHRQKAVVRHTIPEEETHRTQVITQTLNPVWDETFILEFEDITNASFHLDMWDLDTVESVRQKLGELTDLHGLRRIFKEARKDKGQDDFLGNVVLRLQDLRCREDQWYPLEPRTETYPDRGQCHLQFQLIHKRRATSASRSQPSYTVHLHLLQQLVSHEVTQHEAGSTSWDGSLSPQAATVLFLHATQKDLSDFHQSMAQWLAYSRLYQSLEFPSSCLLHPITSIEYQWIQGRLKAEQQEELAASFSSLLTYGLSLIRRFRSVFPLSVSDSPARLQSLLRVLVQMCKMKAFGELCPNTAPLPQLVTEALQTGTTEWFHLKQQHHQPMVQGIPEAGKALLGLVQDVIGDLHQCQRTWDKIFHNTLKIHLFSMAFRELQWLVAKRVQDHTTVVGDVVSPEMGESLFQLYISLKELCQLRMSSSERDGVLALDNFHRWFQPAIPSWLQKTYNEALARVQRAVQMDELVPLGELTKHSTSAVDLSTCFAQISHTARQLDWPDPEEAFMITVKFVEDTCRLALVYCSLIKARARELSSGQKDQGQAANMLCVVVNDMEQLRLVIGKLPAQLAWEALEQRVGAVLEQGQLQNTLHAQLQSALAGLGHEIRTGVRTLAEQLEVGIAKHIQKLVGVRESVLPEDAILPLMKFLEVELCYMNTNLVQENFSSLLTLLWTHTLTVLVEAAASQRSSSLASNRLKIALQNLEICFHAEGCGLPPKALHTATFQALQRDLELQAASSRELIRKYFCSRIQQQAETTSEELGAVTVKASYRASEQKLRVELLSASSLLPLNSNGSSNPFVQLTLEPRHEFPELAARETQKHKKDLHPLFDETFEFLVPAEPCRKAGACLLLTVLDYDTLGADDLEGEAFLPLREVPGLSGSEEPGEVPQTRLPLTYPAPNGDPILQLLEGRKGDREAQVFVRLRRHRAKQASQHALRPAP

What was measured:
[1] = molecular target: t-SNAREs: syntaxin-1A/SNAP-25B, coexpressed, reconstituted in liposomes or supported bilayers (rat | mouse, UniProt P32851;P60879); test: liposome coflotation
Chain of t-SNAREs: syntaxin-1A/SNAP-25B, coexpressed, reconstituted in liposomes or supported bilayers (P32851 whole entry, chain 1 of 2): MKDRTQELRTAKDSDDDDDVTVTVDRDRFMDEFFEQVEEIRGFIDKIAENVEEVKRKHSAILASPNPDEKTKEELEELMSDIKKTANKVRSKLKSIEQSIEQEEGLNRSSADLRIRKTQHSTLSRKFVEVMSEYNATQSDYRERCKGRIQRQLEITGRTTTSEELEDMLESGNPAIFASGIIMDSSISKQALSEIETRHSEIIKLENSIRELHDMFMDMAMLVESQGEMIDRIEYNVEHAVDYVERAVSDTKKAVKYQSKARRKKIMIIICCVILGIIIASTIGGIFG
Chain of t-SNAREs: syntaxin-1A/SNAP-25B, coexpressed, reconstituted in liposomes or supported bilayers (P60879 whole entry, chain 2 of 2): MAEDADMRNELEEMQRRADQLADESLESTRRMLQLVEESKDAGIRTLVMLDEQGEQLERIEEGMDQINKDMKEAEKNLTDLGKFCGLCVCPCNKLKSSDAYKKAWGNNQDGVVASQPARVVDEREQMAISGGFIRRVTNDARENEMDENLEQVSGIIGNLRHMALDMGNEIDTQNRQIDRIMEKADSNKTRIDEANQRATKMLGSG

native gel or EMSA = molecular target: the molecule itself; test: native gel or EMSA

Binder | fold increase in binding with Ca2+ against no Ca2+ [1] | binding result (native gel or EMSA) | binding result [1]
B1 | 2.5 fold | – | –
B2 | – | binds | binds
B3 | – | binds | binds
B4 | – | binds | binds
